Laboratory results taken from US6803203.

How the values were obtained:
[1] = system: T1, synthetic peptide (SEQ ID NO: 11)
T1 sequence: EPPLSQEAFADLWKK

[2] = system: T2, synthetic peptide (SEQ ID NO: 20)
T2 sequence: EPPLSEQAFADLWKK

Substance | incorporation of phosphate into the peptide (200 or 500 µM) [1] | incorporation of phosphate into the peptide (200 or 500 µM) [2]
casein kinase I | less than 5% of the incorporation into the standard peptides used to assay each kinase | less than 5% of the incorporation into the standard peptides used to assay each kinase
casein kinase II | less than 5% of the incorporation into the standard peptides used to assay each kinase | less than 5% of the incorporation into the standard peptides used to assay each kinase
catalytic subunit of cyclic AMP kinase | less than 5% of the incorporation into the standard peptides used to assay each kinase | less than 5% of the incorporation into the standard peptides used to assay each kinase
